Consider three molecules from paper PMC8902816, “Plasmodium falciparum GBP2 Is a Telomere-Associated Protein That Binds to G-Quadruplex DNA and RNA”.

Data set [1] deals with T1, PfGBP2 (Plasmodium falciparum, UniProt Q8IJX3 1-246).
T1 sequence: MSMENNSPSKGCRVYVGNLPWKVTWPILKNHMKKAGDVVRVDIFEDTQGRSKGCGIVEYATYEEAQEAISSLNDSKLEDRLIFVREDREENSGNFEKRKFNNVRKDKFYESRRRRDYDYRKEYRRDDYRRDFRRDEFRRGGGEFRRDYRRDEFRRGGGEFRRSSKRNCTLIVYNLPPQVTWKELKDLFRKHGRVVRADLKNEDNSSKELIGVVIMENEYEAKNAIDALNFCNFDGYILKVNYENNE
The data set is described as follows: EMSA; 50 ng dIdC; EMSA: 1 ug GBP2 (bacterial extract), 50 ng dIdC, 20 fmol biotin probe, 20 min, room temperature, 200-fold competitor, 0.5x TBE 4-12% gel; dot blot/ThT: oligos folded in 100 uM (so in the source) Tris pH 7.8 and 100 uM KCl, or LiCl up to 1 M. The settings on record: protein: recombinant; tags: 6xHis at N and C termini (pET-28a+); label: 3' biotin (EMSA). Background: In EMSA bound probe runs differently from free probe, usually more slowly.

Data set [2] concerns the target T1, PfGBP2. The data set can be described thus: EMSA; 50 ng dIdC; not efficiently competed by unlabeled RNA, partially by unlabeled DNA; EMSA: 1 ug GBP2 (bacterial extract), 50 ng dIdC, 20 fmol biotin probe, 20 min, room temperature, 200-fold competitor, 0.5x TBE 4-12% gel; dot blot/ThT: oligos folded in 100 uM (so in the source) Tris pH 7.8 and 100 uM KCl, or LiCl up to 1 M. The settings on record: protein: recombinant; tags: 6xHis at N and C termini (pET-28a+); label: 3' biotin (EMSA).

As to TTAAAATTTATAATTATAAATTTTAA (ssDNA) [A/T only], the binding result in data set [1] was “no binding”.
As for UUCAGGGUUCAGGGUUCAGGGUUCAGGGUUC (ssRNA) [RNA G-rich 2], in data set [2], the binding result is given as “binds”.
With GTGTATGCGTTATGTGTATGCGTGTGAGTG (ssDNA) [G-rich 1 scram], the binding result in data set [1] is listed as “no binding”.
